The values that follow are results of earlier work, collected in PMC3767571.

By Kd is commonly meant the constant that tells how readily two partners part at equilibrium.

The series has as its target Sortilin (Homo sapiens) (UniProt Q99523).
Chain of UniProt Q99523 (Q99523 78-755): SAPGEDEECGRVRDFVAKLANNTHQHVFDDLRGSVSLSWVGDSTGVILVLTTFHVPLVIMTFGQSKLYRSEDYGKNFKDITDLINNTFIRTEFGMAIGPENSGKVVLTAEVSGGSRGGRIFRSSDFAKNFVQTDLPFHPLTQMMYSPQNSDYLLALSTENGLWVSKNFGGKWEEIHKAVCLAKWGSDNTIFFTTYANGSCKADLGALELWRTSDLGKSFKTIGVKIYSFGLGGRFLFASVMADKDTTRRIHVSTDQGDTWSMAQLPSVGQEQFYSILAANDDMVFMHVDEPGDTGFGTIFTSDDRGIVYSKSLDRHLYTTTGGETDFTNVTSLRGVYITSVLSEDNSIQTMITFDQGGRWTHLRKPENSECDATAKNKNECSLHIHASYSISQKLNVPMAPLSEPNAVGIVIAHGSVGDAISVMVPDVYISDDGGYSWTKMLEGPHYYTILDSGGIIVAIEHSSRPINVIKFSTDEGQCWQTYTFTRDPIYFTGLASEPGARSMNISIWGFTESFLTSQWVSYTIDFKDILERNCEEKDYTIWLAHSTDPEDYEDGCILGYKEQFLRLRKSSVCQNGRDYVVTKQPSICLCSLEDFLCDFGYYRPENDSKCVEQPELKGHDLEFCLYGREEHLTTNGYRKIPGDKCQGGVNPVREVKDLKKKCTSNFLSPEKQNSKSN

Take Progranulin (from UniProt P28799): the dissociation constant Kd is 11 nM.
